In patent publication US5976875A, “Diacylglycerol kinase isoforms epsilon and zeta and methods of use thereof” (priority 1997, dated 1999):
Like-named read-outs stand apart in the source and are kept apart here. Values belong to the molecule of their own block, whether it stands above or below them.

How the values were obtained:
[1] = system: protein kinase M (PKM), catalytic fragment of mixed rat brain PKC isozymes; assay: Phosphorylation of peptides by PKM (kinetics); assay type: biochemical; conditions: for Km: FIG. 15C
Method: Phosphorylation of peptides and proteins--Peptides were phosphorylated by the purified catalytic fragment of mixed rat brain PKC isozymes (protein kinase M; PKM). In all cases involving kinetic measurements, the peptides were phosphorylated by PKM (1:120 dilution of frozen stock solution) at 30° C. All reactions were performed in the linear range of peptide phosphorylation, in an assay mixture containing 40 mM Hepes (pH 7.4), 0.25 mM EGTA, 12.5 mM MgCl2, 75 μM y-[^32 P]ATP, and various concentrations of peptides. In the peptide experiments, the reactions were stopped after 10 minutes by the addition of 1/5 vol of 5×SDS sample buffer, boiled for 5 minutes and then subjected to electrophoresis on 20% acrylamide gels. After the gels were dried, the phosphorylated peptides were localized by autoradiography, excised from the gel, and subjected to Cerenkov scintillation counting.

[2] = molecular target: protein kinase M (PKM), catalytic fragment of mixed rat brain PKC isozymes; assay: Inhibition of PKM phosphorylation of histone IIIS; assay type: biochemical; conditions: histone IIIS as substrate, 10 minute reaction; read-out: half-maximal inhibition of PKM
Method: When the inhibitory effects of the DGK A/S peptide were assayed, histone IIIS (final concentration 20 μg/ml or as specified) was used as a substrate for PKM (1:80 dilution of frozen stock) in the reaction mixture described above. The reaction was linear for at least 40 minutes at 30° C.; 10 and 15 minute time points were chosen to evaluate inhibitory effects of the peptide. The peptide was added to the reaction mixture for 10 min at 30° C. in a shaking water bath before the reactions were started by the addition of Mg/ATP; samples were assayed using filter papers (P81, Whatman) and trichloroacetic acid precipitation.

[3] = molecular target: DGK peptide, 18 amino acid peptide corresponding to residues 256-273 of DGKζ (human)
[4] = molecular target: DGK A/S peptide, the DGK peptide with an alanine substituted for the serine at residue 10 (human)
[5] = molecular target: human diacylglycerol kinase ζ (DGKζ) (human)
DGK.zeta.-2 = molecular target: T1, DGK.zeta.-2 (Homo sapiens, UniProt Q13574); assay: DGK activity assay, homogenates of DGK.zeta.-2-transfected COS-7 cells; assay type: biochemical
T1 construct: the DGK.zeta.-2 cDNA was subcloned into an expression vector and transfected into COS-7 cells; expressed in transfected cells; host or cells: COS-7
T1 sequence (Q13574 1-1117 isoform Q13574-1 Q21R/L159V/L166C/L167C): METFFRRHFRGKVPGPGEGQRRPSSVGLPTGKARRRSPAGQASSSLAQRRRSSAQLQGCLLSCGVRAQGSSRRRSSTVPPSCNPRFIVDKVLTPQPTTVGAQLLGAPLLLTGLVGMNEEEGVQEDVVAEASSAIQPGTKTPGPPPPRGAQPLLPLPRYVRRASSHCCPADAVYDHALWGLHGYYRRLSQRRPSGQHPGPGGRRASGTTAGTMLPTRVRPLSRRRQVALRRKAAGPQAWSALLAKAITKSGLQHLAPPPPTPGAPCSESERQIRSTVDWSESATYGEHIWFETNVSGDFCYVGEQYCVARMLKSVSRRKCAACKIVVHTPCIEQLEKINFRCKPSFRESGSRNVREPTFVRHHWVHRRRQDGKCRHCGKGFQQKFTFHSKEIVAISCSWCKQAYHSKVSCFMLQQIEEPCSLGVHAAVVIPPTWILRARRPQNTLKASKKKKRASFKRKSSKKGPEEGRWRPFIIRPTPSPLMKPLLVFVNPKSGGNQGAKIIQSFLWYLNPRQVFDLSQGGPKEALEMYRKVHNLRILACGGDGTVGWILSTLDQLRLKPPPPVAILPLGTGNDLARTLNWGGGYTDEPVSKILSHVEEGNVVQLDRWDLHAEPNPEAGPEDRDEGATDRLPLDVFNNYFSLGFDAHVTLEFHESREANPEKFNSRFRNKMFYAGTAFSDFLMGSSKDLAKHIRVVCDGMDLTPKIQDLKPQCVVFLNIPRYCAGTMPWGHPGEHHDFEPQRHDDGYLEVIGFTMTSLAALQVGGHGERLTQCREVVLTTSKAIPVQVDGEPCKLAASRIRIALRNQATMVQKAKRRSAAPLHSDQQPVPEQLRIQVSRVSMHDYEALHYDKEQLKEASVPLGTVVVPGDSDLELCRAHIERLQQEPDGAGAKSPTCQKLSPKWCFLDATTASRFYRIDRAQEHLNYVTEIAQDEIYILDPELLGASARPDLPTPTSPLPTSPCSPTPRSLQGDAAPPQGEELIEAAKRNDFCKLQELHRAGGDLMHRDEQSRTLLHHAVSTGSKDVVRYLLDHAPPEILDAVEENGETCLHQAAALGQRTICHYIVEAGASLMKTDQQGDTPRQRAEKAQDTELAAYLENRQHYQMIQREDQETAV
Method: DAG Kinase Assay--Cell homogenates were sonicated twice with 5 watts for 5 at 4° C. The protein concentration of each cell homogenate was measured following trichloracetic acid precipitation utilizing the BCA protein assay reagent (Pierce). Each assay contained 50 mM MOPS, pH 7.2, 100 mM NaCl, 20 mM MgCl2, 1 mM EGTA, 1 mM dithiothreitol, 2 mM 1,2-dieleoyl-an-glycerol, 3.5 mM phosphatidylserine, 75 mM octyl-β-glucopyranoside, 500 μM [γ^32 ]ATP, and 0-20 μg of cell homogenate in a volume of 200 μl. For substrate specificity experiments, various diacylglycerol species were substituted for 1,2-dioleoyl-an-glycerol. The reactions were initiated by the addition of ATP (20-30 μCi/μmol), were incubated for 10 min. At 24° C., and were terminated by the addition of 200 μl of 1% perchloric acid. […] Fifty μl of each sample were counted directly by liquid acintillation spectrometry, and the remainder was applied to a 20×20 cm Silica 60A thin layer chromatography plate (Whatman). […] The region containing phosphatidic acid (as indicated by radiolabeled standards) and the remaining areas of each lane were scraped separately, and the radioactivity was estimated by liquid scintillation spectrometry. The amount of phosphatidic acid formed per reaction was calculated as [2(direct count)(PA cpm)(total lane cpm)]×[mole ATP/cpm]. […]

[6] = system: protein kinase M (PKM), catalytic fragment of mixed rat brain PKC isozymes; conditions: comparison values for MARCKS and MRP synthetic peptides; read-out: S0.5 for phosphorylation by PKM; cited from earlier work
[7] = molecular target: protein kinase M (PKM), purified catalytic fragment of mixed rat brain PKC isozymes (rat)

Molecule: DGK(A/S) peptide: same peptide with an alanine substituted for the serine at residue 10 (SEQ ID NO: 16) (KASKKKKRAAFKRKSSKK)
rate of phosphorylation relative to native peptide ([1]; 0.2 mM peptide, identical conditions): approximately 1/6
Km ([1]; read-out: Km of possible second, still lower affinity site): > 800 µM
Km ([1]; initial portion of the rectangular hyperbola, read-out: Km as substrate for PKM): ~50 µM
IC50 [2]: ~800 nM

Molecule: MARCKS: MARCKS synthetic peptide phosphorylated by PKM (KASKKKKRASFKRKSSKK)
Km [6]: 0.02 µM

Second part, led by results:

Km of phosphorylation of the peptide by PKM [3]: 0.5 µM
Km of a possible second phosphorylation site [4]: > 800 µM
Km of phosphorylation of the peptide by PKM [4]: 50 µM
Molecule: protein kinase M (PKM), purified catalytic fragment of mixed rat brain PKC isozymes (pool or library)

nuclear localization of DGKζ by subcellular fractionation and immunoblotting [5]: > 50%
Molecule: human protein kinase C γ (PKCγ) (from UniProt P05129) (enzyme)

DGK activity (DGK.zeta.-2; 1,2-dicapryl-sn-glycerol substrate, typical experiment, FIG. 21): 6.8 nmol/mg/min
Molecule: DGK.zeta.-2: alternatively spliced muscle form of DGK.zeta., 1,117 amino acid protein (SEQ ID NO: 6)
DAG kinase activity relative to vector alone (DGK.zeta.-2; transfected COS-7 homogenates): more than 50 fold

half-maximal inhibition of PKM phosphorylation of histone IIIS [7]: 800 nM
Molecule: KASKKKKRAAFKRKSSKK [DGK A/S peptide, the DGK peptide with an alanine substituted for the serine at residue 10]
